Results reported in patent US20170209564A1.

Assays:
Assay in all cases: ELISA signal over HTRF expression signal, P. pastoris
Settings in all cases: remark: other sources report otherwise
10F9 = target: 10F9
11B4 = target: 11B4
12C6 = target: 12C6
1F2 = target: 1F2
36D6 = target: 36D6
48B10 = target: 48B10
4C1 = target: 4C1
51G10 = target: 51G10
53G10 = target: 53G10
54H4 = target: 54H4
55H2 = target: 55H2
56D2 = target: 56D2
56F4 = target: 56F4
56F8 = target: 56F8
57B8 = target: 57B8
58C8 = target: 58C8
60A2 = target: 60A2
67C10 = target: 67C10
69D2 = target: 69D2
69G8 = target: 69G8
70F6 = target: 70F6
71E7 = target: 71E7
74D7 = target: 74D7
76D10 = target: 76D10
78F11 = target: 78F11
79F8 = target: 79F8
7A7 = target: 7A7
80F10 = target: 80F10
84E10 = target: 84E10
850 = target: 850
86F1 = target: 86F1
86G2 = target: 86G2
86G3 = target: 86G3
87H5 = target: 87H5
88C5 = target: 88C5
8D7 = target: 8D7
91C8 = target: 91C8
97G10 = target: 97G10

B1: CR6261 (antibody, V domains shown)
VH: EVQLVESGAEVKKPGSSVKVSCKASGGPFRSYAISWVRQAPGQGPEWMGGIIPIFGTTKYAPKFQGRVTITADDFAGTVYMELSSLRSEDTAMYYCAKHMGYQVRETMDVWGKGTTVTVSS
VL: QSVLTQPPSVSAAPGQKVTISCSGSSSNIGNDYVSWYQQLPGTAPKLLIYDNNKRPSGIPDRFSGSKSGTSATLGITGLQTGDEANYYCATWDRRPTAYVVFGGGTKLTVLG
- fold increase of ratio over parental SEQ ID NO: 6 (10F9): 3.93
- ratio (binding signal/HTRF signal) (10F9): 23.3
- fold increase of ratio over parental SEQ ID NO: 6 (11B4): 3.23
- ratio (binding signal/HTRF signal) (11B4): 19.2
- fold increase of ratio over parental SEQ ID NO: 6 (12C6): 2.43
- ratio (binding signal/HTRF signal) (12C6): 14.4
- fold increase of ratio over parental SEQ ID NO: 6 (1F2): 2.04
- ratio (binding signal/HTRF signal) (1F2): 12.1
- fold increase of ratio over parental SEQ ID NO: 6 (36D6): 1.83
- ratio (binding signal/HTRF signal) (36D6): 10.8
- fold increase of ratio over parental SEQ ID NO: 6 (48B10): 3.16
- ratio (binding signal/HTRF signal) (48B10): 18.8
- fold increase of ratio over parental SEQ ID NO: 6 (4C1): 3.92
- ratio (binding signal/HTRF signal) (4C1): 23.3
- fold increase of ratio over parental SEQ ID NO: 6 (51G10): 3.73
- ratio (binding signal/HTRF signal) (51G10): 22.1
- fold increase of ratio over parental SEQ ID NO: 6 (53G10): 2.93
- ratio (binding signal/HTRF signal) (53G10): 17.4
- fold increase of ratio over parental SEQ ID NO: 6 (54H4): 8.39
- ratio (binding signal/HTRF signal) (54H4): 49.8
- fold increase of ratio over parental SEQ ID NO: 6 (55H2): 3.28
- ratio (binding signal/HTRF signal) (55H2): 19.5
- fold increase of ratio over parental SEQ ID NO: 6 (56D2): 2.3
- ratio (binding signal/HTRF signal) (56D2): 13.7
- fold increase of ratio over parental SEQ ID NO: 6 (56F4): 3.21
- ratio (binding signal/HTRF signal) (56F4): 19.1
- fold increase of ratio over parental SEQ ID NO: 6 (56F8): 3.65
- ratio (binding signal/HTRF signal) (56F8): 21.7
- fold increase of ratio over parental SEQ ID NO: 6 (57B8): 1.7
- ratio (binding signal/HTRF signal) (57B8): 10.1
- fold increase of ratio over parental SEQ ID NO: 6 (58C8): 2.51
- ratio (binding signal/HTRF signal) (58C8): 14.9
- fold increase of ratio over parental SEQ ID NO: 6 (60A2): 2.53
- ratio (binding signal/HTRF signal) (60A2): 15
- fold increase of ratio over parental SEQ ID NO: 6 (67C10): 3.99
- ratio (binding signal/HTRF signal) (67C10): 23.7
- fold increase of ratio over parental SEQ ID NO: 6 (69D2): 2.19
- ratio (binding signal/HTRF signal) (69D2): 13
- fold increase of ratio over parental SEQ ID NO: 6 (69G8): 8.55
- ratio (binding signal/HTRF signal) (69G8): 50.8
- fold increase of ratio over parental SEQ ID NO: 6 (70F6): 1.63
- ratio (binding signal/HTRF signal) (70F6): 9.66
- fold increase of ratio over parental SEQ ID NO: 6 (71E7): 3.19
- ratio (binding signal/HTRF signal) (71E7): 19
- fold increase of ratio over parental SEQ ID NO: 6 (74D7): 3.27
- ratio (binding signal/HTRF signal) (74D7): 19.4
- fold increase of ratio over parental SEQ ID NO: 6 (76D10): 1.97
- ratio (binding signal/HTRF signal) (76D10): 11.7
- fold increase of ratio over parental SEQ ID NO: 6 (78F11): 3.41
- ratio (binding signal/HTRF signal) (78F11): 20.2
- fold increase of ratio over parental SEQ ID NO: 6 (79F8): 2.64
- ratio (binding signal/HTRF signal) (79F8): 15.7
- fold increase of ratio over parental SEQ ID NO: 6 (7A7): 12.4
- ratio (binding signal/HTRF signal) (7A7): 73.4
- fold increase of ratio over parental SEQ ID NO: 6 (80F10): 1.78
- ratio (binding signal/HTRF signal) (80F10): 10.6
- fold increase of ratio over parental SEQ ID NO: 6 (84E10): 5.37
- ratio (binding signal/HTRF signal) (84E10): 31.9
- fold increase of ratio over parental SEQ ID NO: 6 850: 4.07
- ratio (binding signal/HTRF signal) 850: 24.2
- fold increase of ratio over parental SEQ ID NO: 6 (86F1): 2.92
- ratio (binding signal/HTRF signal) (86F1): 17.4
- fold increase of ratio over parental SEQ ID NO: 6 (86G2): 1.93
- ratio (binding signal/HTRF signal) (86G2): 11.5
- fold increase of ratio over parental SEQ ID NO: 6 (86G3): 3.87
- ratio (binding signal/HTRF signal) (86G3): 23
- fold increase of ratio over parental SEQ ID NO: 6 (87H5): 1.64
- ratio (binding signal/HTRF signal) (87H5): 9.77
- fold increase of ratio over parental SEQ ID NO: 6 (88C5): 5.94
- ratio (binding signal/HTRF signal) (88C5): 35.3
- fold increase of ratio over parental SEQ ID NO: 6 (8D7): 1.69
- ratio (binding signal/HTRF signal) (8D7): 10
- fold increase of ratio over parental SEQ ID NO: 6 (91C8): 3.51
- ratio (binding signal/HTRF signal) (91C8): 20.8
- fold increase of ratio over parental SEQ ID NO: 6 (97G10): 2.12
- ratio (binding signal/HTRF signal) (97G10): 12.6
